Experiment [1] concerns the target T1, recombinant soluble human IL-6R (human, UniProt P08887 20-365).
T1 construct: also called sIL-6R; shIL-6R
T1 sequence: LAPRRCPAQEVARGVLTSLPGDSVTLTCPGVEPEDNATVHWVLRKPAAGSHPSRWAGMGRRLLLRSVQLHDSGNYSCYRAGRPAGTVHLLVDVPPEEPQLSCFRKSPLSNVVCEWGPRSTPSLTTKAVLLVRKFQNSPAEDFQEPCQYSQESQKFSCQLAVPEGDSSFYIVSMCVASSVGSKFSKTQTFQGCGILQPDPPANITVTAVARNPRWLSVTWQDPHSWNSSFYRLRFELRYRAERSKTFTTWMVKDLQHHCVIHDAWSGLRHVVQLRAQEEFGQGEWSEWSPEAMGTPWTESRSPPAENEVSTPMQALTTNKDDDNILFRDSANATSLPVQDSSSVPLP
Put plainly: gp130 ELISA (competition), second assay, 10 min pre-incubation; 20 ng/mL IL6R, 100 ng/mL IL6. The method, then:
(§1) Briefly, Maxisorp 96-well plates were coated overnight with 50 μl/well 0.5 μg/ml gp130 then blocked. ICVDs were serially diluted and mixed 1:1 with 100 ng/ml recombinant human IL-6 then 1:1 with 40 ng/ml recombinant human sIL-6R, and incubated for 1 hour to allow binding before adding to the gp130-coated plates. Bound IL-6R was detected with 50 μl/well 0.250 μg/ml BAF227 and then 50 μl/well 1/1000 diluted Extravidin-HRP and the level of neutralisation by the ICVD of IL-6R binding to IL-6/gp130 was determined.
(§2) A separate assay was performed on 21E6 and 7F6 using the same protocol as above with the exception that the ICVD/IL-6R/IL-6 where only incubated with shaking for 10 min before being added to the assay plates.

The target in experiment [2] is T2, membrane-bound human IL-6R on TF-1 cells (human, UniProt P08887 20-468).
T2 sequence: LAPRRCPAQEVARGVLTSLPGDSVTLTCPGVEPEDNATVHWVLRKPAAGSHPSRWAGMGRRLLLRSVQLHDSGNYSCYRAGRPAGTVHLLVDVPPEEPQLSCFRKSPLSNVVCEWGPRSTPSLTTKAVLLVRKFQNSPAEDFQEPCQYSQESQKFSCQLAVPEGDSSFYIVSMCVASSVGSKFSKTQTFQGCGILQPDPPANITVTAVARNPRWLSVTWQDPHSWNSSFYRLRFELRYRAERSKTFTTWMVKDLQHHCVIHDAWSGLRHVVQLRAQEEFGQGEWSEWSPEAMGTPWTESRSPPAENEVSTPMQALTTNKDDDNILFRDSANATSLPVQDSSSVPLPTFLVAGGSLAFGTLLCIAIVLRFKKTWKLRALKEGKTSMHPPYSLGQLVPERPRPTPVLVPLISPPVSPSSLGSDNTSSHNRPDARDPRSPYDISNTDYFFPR
Put plainly: cell-based or functional assay.

Experiment [3] addresses T1, recombinant soluble human IL-6R. In words: gp130 ELISA (competition), second assay; reference 7F6. The protocol: as §1, §2
Experiment [4] shares this target. In words: standard gp130 ELISA (competition).

B1: 21E6 (VHH)
VHH: EVQLVESGGGLVLAGGSTRLTCLASGSISSINVIGWYRQAPGKQRELVAMIGRGEGANYGDFAKGRFTISRDNSKNTVYLQMNSLKPEDTAVYYCYADYEDRDSPLNGSWGQGTQVTVSS
notes: Family-expansion clone related to 7F6 (Q13L and F106L); Expressed from a phagemid vector and purified
As to B1, the IC50 in experiment [1] came out at 0.3 nM. Moreover, the “IC50 in TF1 assay (separate assay, raised background)” value in experiment [2] was determined as 11 nM. Also, the “fold less potent than 7F6” value in experiment [3] was roughly 2 fold.

B2: ID-75V (VHH)
VHH: DVQLVESGGGLVQAGGSTRLTCKASGSISNINSINVMAWYRQAPGKQRELVAIIGKGGGTNYADFVKGRFTISRDAAKNTVNLQMNSLKPEDTAVYYCYADYEDHDSPFNASWGQGTQVTVSS
notes: also called 5G9 + E1D, F29S, R105H
For the molecule B2, the binding result in experiment [4] is listed as “binds”.

The values are drawn from patent US20220380475A1 (SORRISO PHARMACEUTICALS, published 2022).
